In FireProtDB (doi:10.1016/j.jmb.2011.02.053):

Settings: pH 7, Fluorescence, transition: 2, reversible: yes, whole UniProt chain shown; for denaturant midpoint (higher = more stable) / unfolding free energy: 25 °C, Urea
[1] = Aspergillus oryzae (strain ATCC 42149 / RIB 40), MOPS 30mM
[2] = Borreliella burgdorferi, Sodium phosphate 5mM

B1: Guanyl-specific ribonuclease T1 wild type, P00651 (protein)
chain: MMYSKLLTLTTLLLPTALALPSLVERACDYTCGSNCYSSSDVSTAQAAGYQLHEDGETVGSNSYPHKYNNYEGFDFSVSSPYYEWPILSSGDVYSGGSPGADRVVFNENNQLAGVITHTGASGNNFVECT
[1]
  denaturant midpoint (higher = more stable): 5.3 M
  unfolding free energy: 6.4 kcal/mol

B2: Variable large protein wild type, O06878 (protein)
chain: MKKISSAILLTTFFVFINCKSQVADKDDPTNKFYQSVIQLGNGFLDVFTSFGGLVAEAFGFKSDPKKSDVKTYFTTVAAKLEKTKTDLNSLPKEKSDISSTTGKPDSTGSVGTAVEGAIKEVSELLDKLVKAVKTAEGASSGTAAIGEVVADADAAKVADKASVKGIAKGIKEIVEAAGGSEKLKAVAAAKGENNKGAGKLFGKAGAAAHGDSEAASKAAGAVSAVSGEQILSAIVTAADAAEQDGKKPEEAKNPIAAAIGDKDGGAEFGQDEMKKDDQIAAAIALRGMAKDGKFAVKDGEKEKAEGAIKGAAESAVRKVLGAITGLIGDAVSSGLRKVGDSVKAASKETPPALNK
[2]
  denaturant midpoint (higher = more stable): 1.19 M
  unfolding free energy: 4.6 kcal/mol

B3: Guanyl-specific ribonuclease Sa wild type, P05798 (protein)
chain: DVSGTVCLSALPPEATDTLNLIASDGPFPYSQDGVVFQNRESVLPTQSYGYYHEYTVITPGARTRGTRRIITGEATQEDYYTGDHYATFSLIDQTC
Kitasatospora aureofaciens, Thermal, MOPS 30mM
  unfolding enthalpy (calorimetric): 92 kcal/mol
